According to the RNAGym collection of RNA variant scans (doi:10.1093/nar/gkz1192):

B1: CPEB3 Ribozyme (parent)
chain: UAACAGGGGGCCACAGCAGAAGCGUUCACGUCGCAGCCCCUGUCAGAUUCUGGUGAAUCUGCGAAUUCUGCUGUAUAUCUC

Variants of: B1
Assay: self-cleavage, relative activity (ratio to wild type); higher = more cleavage; in vitro, sequencing
Outline: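 CPEB3 self-cleaving ribozyme mutant libraries were made by rounds of error-prone PCR, barcoded, and transcribed in vitro with T7 RNA polymerase for 5 hours at 37°C. Cleavage occurred during transcription and a 15 min DNase I step before EDTA stop. RNAs were reverse transcribed with template switching and Illumina-sequenced, with DNA sequencing mapping barcodes to variants. Relative activity is the variant's cleaved/total read fraction divided by wild type's (minimum 5 reads), averaged across three batches.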

Variant | self-cleavage
G63U C81U | 0.99
A64G C81G | 1.03
A64G C81A | 1.02
A64G C81U | 0.91
G63U U80C | 1.11
G63U U80A | 0.98
G63U G70A | 0.62
G63C U66C | 0.37
G63A U80A | 0.97
G63A U80C | 0.93
A64C A77G | 0.17
A64C A77U | 0.25
G61A C62U | 0.17
A65G U69A | 0.33
A65G U69C | 0.34
A65G A75G | 0.4
A65G A75U | 0.41
G63C U72C | 1.14
G63C U72A | 0.4
A64C G70A | 0.33
G61U U72G | 0.53
G61U U72C | 0.72
G63U U74G | 1.21
G63U U74A | 1.29

Variant | self-cleavage
G63U U74C | 1.19
A64U G70U | 0.26
A64U G70A | 0.21
A64U G70C | 0.25
A65G U72G | 0.4
A65G U72A | 0.4
A65G U72C | 0.52
G63C U74C | 1.21
G61U U67C | 0.21
G61U U67G | 0.23
G63U A77G | 1.24
A65C C79G | 0.14
A64G A75U | 1.01
A64G A75G | 0.71
A64G A75C | 1.06
G61U U80C | 0.65
C62U A64G | 0.19
C62U A64U | 0.29
A64U U74A | 0.51
A64U U74C | 0.6
G63A A65G | 0.38
C62A U67A | 0.32
G63C | 0.92
G63U | 1.09

Variant | self-cleavage
G63A | 0.87
G63C C79A | 1.09
A64G U72A | 0.67
A64G U72G | 0.87
A64G U72C | 0.91
A64G U78C | 0.77
A64G U78A | 1.07
A64G U78G | 1.11
G63U U69A | 0.57
C62A A75G | 0.12
G61A G63A | 0.84
C62U U80C | 0.28
C62U U80A | 0.3
A65C U78C | 0.15
G63A A75G | 0.49
G63A A75U | 0.84
C62U G73U | 0.21
C62U G73A | 0.16
G61A A77U | 0.98
G61A A77G | 0.8
A64U A77G | 0.39
A64U A77U | 0.46
A65C | 0.29
A65G | 0.52

Variant | self-cleavage
G63A U78A | 0.93
G63A U78C | 0.82
G61C U72C | 0.34
G63A G73A | 1.34
C62U U67C | 0.31
C62U U67A | 0.29
A64U U78A | 0.49
A64U U78C | 0.31
A64U U78G | 0.35
C62A U66C | 0.25
C62A U66A | 0.48
G61C U66C | 0.54
G61C U66A | 0.23
G61U G70A | 0.31
A64U G73A | 0.98
A64U G73C | 0.67
G61A U74C | 1.12
C62U U74A | 0.32
C62U U74G | 0.19
A64C C81U | 0.43
G61C G63U | 0.35
A65G C81A | 0.48
A65G C81U | 0.63
G61C C62U | 0.22

Variant | self-cleavage
C62U C68U | 0.21
U60G U78C | 0.17
U60G U78A | 0.36
C62G U80A | 0.25
C62G A64G | 0.22
C62G A64C | 0.19
C62G A64U | 0.32
U60G U80C | 0.63
A64G U66A | 0.32
A64G U66C | 0.34
G61A A65G | 0.39
G63U C79U | 1.09
A64C U72C | 0.48
A64C U72A | 0.27
A64C U78C | 0.28
C62A G73A | 0.24
G61A | 0.75
G61C | 0.34
G61U | 0.6
C62A A77G | 0.24
A64G U76C | 0.94
A64G U76A | 0.95
G61A C79A | 1.16
A64U U69G | 0.4

Variant | self-cleavage
A64U U69C | 0.29
A64U U69A | 0.32
A64U U80C | 0.45
A64U U80A | 0.37
A65G U78A | 0.6
A65G U78C | 0.42
A64U C79A | 0.36
A64U C79U | 0.39
C62A A65U | 0.24
C62A A65G | 0.36
A65C U67C | 0.23
A64U C81A | 0.42
U60G U72G | 0.28
C62U U76A | 0.25
C62U U76C | 0.33
U60G U74A | 0.82
U60G U74C | 0.88
C62U C71A | 0.26
C62U C71U | 0.22
C62U U66C | 0.26
C62U U66A | 0.18
A64G C71U | 0.34
A64G C71G | 0.31
A65C U74C | 0.3

Variant | self-cleavage
G61A U72C | 0.73
G61A U72A | 0.3
G61C A65G | 0.39
G61C A65C | 0.22
A64U C68A | 0.37
A64C U67A | 0.19
A64C U67C | 0.2
G63U U78A | 0.98
G63U U78C | 0.96
A64G A77U | 1.03
A64G A77G | 0.84
G61C U78C | 0.33
G61A U69A | 0.4
G61A U69C | 0.53
G63U U67C | 0.29
G63U U67A | 0.58
A65C C81A | 0.5
A64G U67C | 0.25
A64G U67G | 0.44
A64G U67A | 0.38
C62U U69C | 0.32
C62U U69A | 0.38
C62G C71U | 0.38
G61A U80C | 0.9

Variant | self-cleavage
G61A U80A | 0.91
G61A U80G | 1
C62U A77C | 0.19
C62U A77G | 0.15
C62U A77U | 0.17
C62A U76C | 0.17
A64U U66C | 0.31
A64U U66A | 0.27
A64U U66G | 0.13
C62A U78A | 0.16
C62A U78C | 0.16
A65G U76G | 0.53
A65G U76A | 0.48
A65G U76C | 0.53
G63A U74C | 1.21
G63A U74A | 0.33
A64G A65C | 0.31
A64G A65G | 0.28
A64G A65U | 0.19
G61C U74A | 0.88
G61C U74C | 0.23
C62G A77U | 0.19
G61U A64U | 0.23
G61C A64G | 0.19

Variant | self-cleavage
G61C A64U | 0.32
A64U U67A | 0.29
A64U U67C | 0.32
A65C A75G | 0.11
G61A U66C | 0.39
A64G G70A | 0.37
A64G G70C | 0.21
A64G G70U | 0.29
A64G | 0.93
A64U | 0.32
A64C | 0.29
G63C U78A | 1.01
A65C U66C | 0.11
C62G A65U | 0.27
C62G C79A | 0.24
C62G U76C | 0.29
G61C U80C | 0.5
G63A U66C | 0.45
G63A U66A | 0.4
A65G U66C | 0.27
A65G U66A | 0.17
A64U U72C | 0.5
A64U U72A | 0.35
A64U U72G | 0.37

Variant | self-cleavage
A64G U69A | 0.38
A64G U69C | 0.41
A64G U69G | 0.44
A65C U80C | 0.53
G63A A64U | 0.54
G63A A64G | 0.6
G63A A64C | 0.42
G63U A64G | 0.79
G63U A64U | 0.43
C62A A64G | 0.25
A64U A75U | 0.45
A64U A75C | 0.5
A64U A75G | 0.35
C62A U74A | 0.18
C62A U74C | 0.4
C62U A65G | 0.27
C62U A65U | 0.14
C62G U72C | 0.26
C62G U72A | 0.27
G63A U67C | 0.3
G63A U67A | 0.31
G63A U69A | 0.5
G63A U69C | 0.61
C62G U69C | 0.22

Variant | self-cleavage
C62G U69A | 0.15
C62U C79G | 0.2
G63U A75U | 1.2
G63U A75G | 1.14
G61U U69A | 0.3
G61A G70U | 0.12
C62U U78C | 0.2
C62U U78A | 0.28
C62U A75G | 0.22
C62U A75C | 0.44
G63A U72A | 0.59
G63A U72C | 0.91
G63A U72G | 0.84
G63A U76A | 0.82
G63A C81U | 1.07
G63U U76G | 1.17
G63U U76A | 1.23
G63U U76C | 1.12
A64U C71A | 0.18
G63A A77G | 0.74
G63A A77U | 0.99
G63U U72C | 1.2
A64C U74C | 0.44
G61U U74C | 1.19

Variant | self-cleavage
A64C U80C | 0.38
C62G | 0.3
C62U | 0.2
C62A | 0.31
G61U U76A | 0.39
A64C U66C | 0.24
G61A U67C | 0.36
G61A U67A | 0.43
G61A U67G | 0.25
A65C U72C | 0.35
A65C U72A | 0.27
A64G U74A | 1.2
A64G U74G | 1.26
A64G U74C | 1.15
C62U U72C | 0.29
C62U U72G | 0.29
C62U U72A | 0.4
A65C A77G | 0.19
G61A U78C | 0.62
A65G C79A | 0.67
A65G C79G | 0.74
C62A G63A | 0.25
G63U U66C | 0.42
A65G U74A | 0.86

Variant | self-cleavage
A65G U74C | 0.79
A65G U74G | 0.89
G63C U67A | 0.25
G63C U67C | 0.31
A64G U80A | 1.03
A64G U80C | 0.95
A64G U80G | 0.67
A65G A77G | 0.51
A65G A77U | 0.55
A65G A77C | 0.45
C62A U69C | 0.34
C62A U69G | 0.33
C62A U69A | 0.31
G61A U76C | 0.88
A65G U67A | 0.3
A65G U67G | 0.16
A65G U67C | 0.32
A64C U69G | 0.47
A64C U69C | 0.4
A64U U76A | 0.32
A64U U76C | 0.4
A64U U76G | 0.24
A64G C79U | 1.1
A64G C79A | 0.84

Variant | self-cleavage
A65G G73U | 1.19
A65G G73C | 0.74
A65G G73A | 1.06
A65G G70A | 0.32
G63A C68U | 0.96
G63C U76C | 1.03
A64C A65G | 0.16
A64C A65U | 0.09
A64U A65U | 0.37
A64U A65C | 0.13
A64U A65G | 0.25
G61A G73A | 1.21
A64G C68A | 0.2
C62A U72G | 0.19
C62A U72A | 0.17
C62A U72C | 0.24
C62A U80A | 0.1
C62A U80C | 0.34
G63U A65G | 0.5
G63U A65U | 0.51
A64G G73U | 1.35
A64G G73A | 1.24
